# Data as given in patent publication EP4714469A1, “PHARMACEUTICAL COMPOSITION COMPRISING ANTIBODY-DRUG CONJUGATE” (CSPC Megalith Biopharmaceutical Co., Ltd., priority 2023, dated 2024).
# Marks after values point to notes of the source that are not given here. Starred links: 1 amine or outer side, 2 acyl side, 3 side chain; linkers in the order of their positions; H or OH if unused. Non-standard residues stand in square brackets, D forms with d. Residues, ends and D or L forms follow the SMILES beside them. *: point of attachment. Exatecan = CC[C@@]1(O)C(=O)OCc2c1cc1n(c2=O)Cc2c-1nc1cc(F)c(C)c3c1c2[C@@H](N*)CC3; Hexanoyl(6-maleimido) = O=C1C=CC(=O)N1CCCCCC(=O)*; X1 = C[C@@H](OCN[*:1])C(=O)[*:2]
# How the values were obtained:
# [1] = system: human colon cancer SW620 xenograft tumor; assay: Assay 15: SW620 xenograft efficacy; format: in vivo, NU/NU mice; conditions: 7 mg/kg i.v./single administration
# Excerpt: (§1) NU/NU mice, 5-6 weeks old, 18 mice
# The assay was terminated on day 26 after the administration.
# [2] = system: human colorectal cancer DiFi xenograft tumor; assay: Assay 16: DiFi xenograft efficacy of patritumab-ADC; format: in vivo, NU/NU mice; conditions: 10 mg/kg i.v./qw*3w (as in Table 29)
# Excerpt: as §1
# (§2) The assay was terminated on day 28 after the administration.
# [3] = system: human lung cancer PC9-GR (gefitinib-resistant cell) xenograft tumor; assay: Assay 3: PC9-GR xenograft efficacy of patritumab-ADC; format: in vivo, NU/NU mice; conditions: 3 mg/kg i.v./qw*4w
# Excerpt: NU/NU mice, 5-6 weeks old, 16 mice
# as §2
# [4] = Assay 8: stability of linker-drug compounds; format: physicochemical; conditions: high temperature, high humidity, illumination or 0.5% BSA-PBS; compared with Deruxtecan
# Description: Different linker-drug compounds such as Deruxtecan and JSSW-001 were studied under high temperature (40°C, 60°C), high humidity (25°C/75% RH and 25°C/92.5% RH), illumination (illuminance 4500Lux, near-UV energy 90µw/cm^2), or 0.5% BSA-PBS conditions. Samples were collected at different times after exposure to these conditions, and the concentration changes of the linker-drug compounds in the samples were detected using the LC-MS/MS method.
# EGFR on MDA-MB-468 cells [5] = molecular target: T1, EGFR on MDA-MB-468 cells (human, UniProt P00533 25-1210); assay: flow cytometry (FACS) on MDA-MB-468 cells, antibody diluted in PBS pH 7.4, FITC anti-human Fc secondary
# T1 construct: whole, on cells; also called target antigen; HER1
# EGFR on MDA-MB-468 cells [6] = molecular target: T1, EGFR on MDA-MB-468 cells; assay: flow cytometry (FACS) on MDA-MB-468 cells, pH 6.0; end of the range tied to SWY2111 by Table 1
# EGFR on MDA-MB-468 cells [7] = molecular target: T1, EGFR on MDA-MB-468 cells; assay: flow cytometry (FACS) on MDA-MB-468 cells, antibody diluted in PBS pH 6.0, FITC anti-human Fc secondary
# EGFR on MDA-MB-468 cells [8] = molecular target: T1, EGFR on MDA-MB-468 cells; assay: flow cytometry (FACS) on MDA-MB-468 cells, pH 7.4; end of the range tied to SWY2111 by Table 1
# EGFR on MDA-MB-468 cells [9] = molecular target: T1, EGFR on MDA-MB-468 cells; assay: flow cytometry (FACS) on MDA-MB-468 cells, pH 6.0
# EGFR on MDA-MB-468 cells [10] = molecular target: T1, EGFR on MDA-MB-468 cells; assay: flow cytometry (FACS) on MDA-MB-468 cells, pH 7.4; end of the range tied to SWY2113 by Table 1
# EGFR on MDA-MB-468 cells [11] = molecular target: T1, EGFR on MDA-MB-468 cells; assay: flow cytometry (FACS) on MDA-MB-468 cells, pH 6.0; end of the range tied to SWY2112 by Table 1
molecule,measurement,setting,value
patritumab-DXD ADC (DAR=7.3): patritumab conjugated with commercially available Deruxtecan [reference compound],TGI (%) Day 21,[1],73.2%
same,Tumor Volume,[1]; 21 days,461.3±278.1*** mm^3
same,TGI (%) Day 28,[2],54.0%
same,Tumor Volume,[2]; 28 days,512.5 ± 470.8* mm^3
same,TGI (%) Day 28,[3],59.5%
same,Tumor Volume,[3]; 28 days,373.4 ± 102.8** mm^3
"CC[C@@]1(O)C(=O)OCc2c1cc1n(c2=O)Cc2c-1nc1cc(F)c(C)c3c1c2[C@@H](NC(=O)[C@@H](C)OCNC(=O)CNC(=O)[C@H](Cc1ccccc1)NC(=O)CNC(=O)CNC(=O)CCCCCN1C(=O)C=CC1=O)CC3 [JSSW-001, N-((2R,10S)-10-benzyl-1-(((1S,9S)-9-ethyl-5-fluoro-9-hydroxy-4-methyl-10,13-dioxo-2,3,9,10,13,15-hexahydro-1H,12H-benzo[de]pyrano[3',4':6,7]indolizino[1,2-b]quinolin-1-yl)amino)-2-methyl-1,6,9,12,15-pentaoxo-3-oxa-5,8,11,14-tetraazahexadecan-16-yl)-6-(2,5-dioxo-2,5-dihydro-1H-pyrrol-1-yl)hexanamide] ({Hexanoyl(6-maleimido)}-GGFG[X1]-Exatecan)",stability of linker-drug compound,[4],better stability
"SWY2111 (antibody, human IgG1, kappa, V domains shown, also called EGFR antibody SWY2111) VH: QVQLQESGPGLVKPSETLSLTCTVSGFSLSDYDVHWVRQAPGKGLEWLGVIWSGGNTDYNTPFTSRLTISVDTSKNQFSLKLSSVTAADTAVYYCARALDDYDYEFAYWGQGTLVTVSS VL: EIVLTQSPDFQSVTPKEKVTITCRASQSIGTNIHWYQQKPDQSPKLLIKYASESISGIPSRFSGSGSGTDFTLTINSLEAEDAATYYCQQNNEWPTSFGQGTKLEIKR",EC50,EGFR on MDA-MB-468 cells [5],1.45 nM
same,fold change of affinity compared to SWY2110 at pH=6.0,EGFR on MDA-MB-468 cells [6],1.2 to 1.3 times
same,EC50,EGFR on MDA-MB-468 cells [7],0.6 nM
same,fold decrease of affinity compared to SWY2110 at pH=7.4,EGFR on MDA-MB-468 cells [8],3 times
"SWY2113 (antibody, human IgG1, kappa, V domains shown, also called EGFR antibody SWY2113) VH: QVQLQESGPGLVKPSETLSLTCTVSGFSLSHYDVHWVRQAPGKGLEWLGVIWSGGNTDYNTPFTSRLTISVDTSKNQFSLKLSSVTAADTAVYYCARALDDYDYEFAYWGQGTLVTVSS VL: EIVLTQSPDFQSVTPKEKVTITCRASQSIGTNIHWYQQKPDQSPKLLIKYASESISGIPSRFSGSGSGTDFTLTINSLEAEDAATYYCQQNNEWPTSFGQGTKLEIKR",EC50,EGFR on MDA-MB-468 cells [5],4.76 nM
same,fold decrease of affinity compared to SWY2110 at pH=6.0,EGFR on MDA-MB-468 cells [9],6.6 times
same,EC50,EGFR on MDA-MB-468 cells [7],3.39 nM
same,fold decrease of affinity compared to SWY2110 at pH=7.4,EGFR on MDA-MB-468 cells [10],3 to 9.7 times
"SWY2112 (antibody, human IgG1, kappa, V domains shown, also called EGFR antibody SWY2112) VH: QVQLQESGPGLVKPSETLSLTCTVSGFSLSEYDVHWVRQAPGKGLEWLGVIWSGGNTDYNTPFTSRLTISVDTSKNQFSLKLSSVTAADTAVYYCARALDDYDYEFAYWGQGTLVTVSS VL: EIVLTQSPDFQSVTPKEKVTITCRASQSIGTNIHWYQQKPDQSPKLLIKYASESISGIPSRFSGSGSGTDFTLTINSLEAEDAATYYCQQNNEWPTSFGQGTKLEIKR",EC50,EGFR on MDA-MB-468 cells [5],2.35 nM
same,EC50,EGFR on MDA-MB-468 cells [7],0.67 nM
same,fold change of affinity compared to SWY2110 at pH=6.0,EGFR on MDA-MB-468 cells [11],1.2 to 1.3 times
